We go through two substances from PMC8162069.

As a reminder, the Km is the substrate concentration at which the rate is half of its maximum. As usually defined, the kcat is the maximal rate divided by the concentration of active sites. The term kcat/Km denotes the turnover number divided by the Michaelis constant.

The data set concerns O=C[C@H](O)COP(=O)(O)O. In words: purified protein. The data set is classed as biochemical, Homo sapiens. Conditions: without HA.

Consider Hs-GAPDH (Homo sapiens), for which the Km is 240 ± 20 µM, the kcat amounted to 21.7 ± 1.67 s⁻¹ and the specificity constant (kcat/Km) is 90000 M⁻¹ s⁻¹.
Take Hs-GAPDH (Homo sapiens; A232S/F233V): the Michaelis constant (Km) was determined as 490 ± 210 µM, the catalytic constant (kcat) was determined as 7.67 ± 2 s⁻¹ and the kcat/Km turned out to be 15700 M⁻¹ s⁻¹.
